Assay: soluble on expression in E. coli; label from the status in PepcDB or PDB records

Sequence | soluble on expression in E. coli
MSLDRSNTVELHAAGAQSAQGARPDQEDEYIILTPGGSPNEIGDSIAFFAVFDGHGTGIVSNHAKEHIPLLLFESDEFRSGNYERAMQAAIDKEDELLLQGFREGQNFFATSGSTASLALVDMKNGVLVVGNIGDSHILMAERDPENGQVKSIERLTTSHKPESADEKARIEKAGGHVHSHHDISRIGSLNMSRALGDLQYKTPLISAAAAPKTEGQKFACAPDPQNVSSQDGAQAGTGRDDFITVEMSFRRIDLHKEKQYLLALTTDGVTNALDDGKIMNGIAEMFNTGSKADEVARKVVDQAASTEYADNATCVTVFLNGTEARLAEGHHHHHH | soluble
MAKKVAVLAVNPVNGCGLFQYLEAFFENGISYKVFAVSDTKEIKTNSGMVLIVDDVIANLKGHEDEFDALVFSCGDAVPVFQQYANQPYNVDLMEVIKTFGEKGKMMIGHCAGAMMFDFTGITKGKKVAVHPLAKPAIQNGIATDEKSEIDGNFFTAQDENTIWTMLPKVIEALKLEHHHHHH | soluble
MYSDKVFDHFQNPRNVGKIEDADGVGTVGNPVCGDLMTIYIKVKDNRIEDIKFQTFGCAAAIATSSMATEMAKGKTIEEALKITRDAVAEALGGLPKQKMHCSNLAADALRRAIVDYFRKNGKIDKIKELGLEKELEKMEKGEMDDHGEYCEA | not soluble
TTNWLNYRAGSVAYEQAAEPLELLTEARIHAQRARTDETLALVWRQSLENSNHTFSTTLKRVDKALSKPGLDPAEVAAARNAMNTWRASHEELTNFLNSGRYEEALKLTTEGPSAFTDLDAALDSLIDSTRVRLRTEIRGVDTTQVN | not soluble
MGSDKIHHHHHHMIKNFVLDTNVLLYDPQAIFKFEENNIIIPITVIEEIDRFKKDMNETGRNARQLSRYLDEMRATGSLANGIALETGGTLRVEMYEEKFMKVLPPELREERGDNRILAVALRVKEQDEATPVIFVTKDTNLRIKSDALGLKAEDYESDKVDIEELYPGFTELEVSAEMVDRFHGQGWVDLTGYDLHPNQFVTLRDAANPSHTALGKYRADQKRITPIAKNGKDGVWSIHPRNREQAFAFDALLDDSIKLVTLVGKAGTGKTLLAIAAGLHKTAEENVYNRLLVSRPVFPMGRDLGFLPGDIEEKLTPWMQPIFDNVELLLSGHEAEKRHSKGYKELMAMGIMDIEPLTYIRGRSIPLQFMIVDEAQNLTPHEIKTIITRAGEGTKIVLTGDPYQIDNPYVDASSNGLTYVVERFKGVPIAGHVTMTKGERSELAELAANLL | not soluble
MGSDKIHHHHHHMIRMIRKFKVKGLRSPSLLIDMILNDTEEGILVVETDGEEQIKDIEKLLKKYNLKYEVDGNVVKIYVGEIKADKTINVVGATCPGPIMMVSDMLSKMKNGEILEIICGKNSLTDLTEGLKGMGNEIIKVEDKGDGTYRILVKKGEKKEEKAAVTKIDELFIINTTGTGNAEKAYATFMMADVALKMNLKPTIFLMMDGASLALKGECDRVKHPAFPKLGDLVRDILSKGVKIYVCELSAEFRGINEKNLEEGFEIAGAPTFLNYLSKPNVRPVWL | not soluble
MGSDKIHHHHHHMTREYGTGEIFHQMGDRVDALHYVLEGHVVAKAVTPEGVERYVLGFLPGTIFGQSPFFNRAPAETLFVSVGHTVAVALGRDYIYGEVAQRHPSLLLNLLESDAYRHRVFGRHIADATLRDLETRLCRFILHLVTEASDPVPVEQALTDAAAEVHPRTGDEGAEGPADCPARCHSGASALFSHPGLTHEDVARYLGLHRVTVSNLLGGLRRAGVLGQFNRKVIEVCDGAELVARAGMSGDGDRWP | not soluble
MRKRKPLDYYLSLKYPVLLVAEPEGGYTALHPDLEGCVSVGETPEEALANLEEARRLWLEAAYEHGDEIPLPSTEREYSGRVLVRMPKSLHRRLDEEAKAEGVSLNQYIVSLPAERSSLRALKRELTRTGRAAEAPDSWEWGTSSGGGIWTGVLA | soluble
GPGSMMIDGAINPREWFNWHPKEYQPWYFDRHKFIYEQGQYAAYNHLLCHQAYLKDIEHLTRYPEPRTFVIDCRMSPAKMHRWVPHSMWLPRDEVEYALQLTNDEFQEMYGFIKPAKDDDVILISHNGLASEQAGWEWRKQYYQHVYNYRGGTNELFGEDYQDFILKDRLDPWKGPYPQKSIFVDKWSKRKVLTRTGPFDRQYEMQDFALPDLELERPRHSEDGPRQNMPYGLQ | not soluble
MGSDKIHHHHHHMKTLVICSGGLDSVSLAHKVAAEHDLIGLISFDYGQRHRKELDFAARAATRLGVPHDLIDMRQIGAHLSGSALTDDVDVPDGHYAEDTMKITVVPNRNAIMLAIAFGIAAAKQADAVATAVHGGDHFIYPDCRPGFTQAFEAMQAQALDGYASVRLYTPFVHEPKSAIVTEGERHNTPFADTWSCYKGGEVHCGRCGTCVERREAFHLAGVADPTPYADPEFWRAAVEGR | not soluble
MTPLSALTSNPAPSPPPKFALGKCPATAIHVVSVLRPNRQRFCYEKTDAGDLIPHKCLICQPILTEKHISPYYAVYSDLLEDFVLFGYNTMTGKMEQFIYAFKTDCFVEVNRPEIKYNPAFLVKGNVVVALNGPEGELVVIERDCRGLLSKESTSYGQFRTLPTAALRTLTLQDLERDRWDRAANSDEVKISSGNESFDRLYAEYQKNLPRFQVRQCLHLNKEFLCVYSKTSGDYTRLEYIDETGDFQKISCTLCTCEVTESNLIPLYVERNASELVIHVHNTENNQIEQYIYDVRTFGFVQVKRNLVYDPKKITSGLNLFMAENIDNRKVYMIMRGRDGRLQKETSGSGGFEKMQPVAVKTFQVQWVEMKTEFEKKKASTERVEPQHPVQTEGEDIMETVLAMVESFNCDLRKELGLTQDQEIPRKAPRVESAETEENIVKNLEKLQIAKDPEEPTTAASEGGNTYGYQELDDTMSEGLLEKEAESKHQDANEPEPVKNVTYEPDVAAMDKKKKRRELKSRLNKINAQIDELEKRRMERAGKKQVVSSSVPSEEAAQVEAPASPALAENTNQISNEETPKIDIFEGYNGSFLFGTNTSKEWIVEDIRNHMVGKLLKAFWPRIQNVEEMNGELFKKLIANARKCETEILEASNDRDEYYRLMQLTVDQILKKTLKKDQRATEHNHQQPTQSSDELAKNHEKN | not soluble
MTTLGTPVSLGRRTRTGRLELEFGVRHGQTALLRDLQKAPLMVVRPFRLPCGTLMVFIVNPTGGVLGGDHSEIHVEAGAGTRVLILTQSATRVQPSPGGEWATQELHFHVGVGARLEYYPERTLPFAGSRFRQHLRADLGAGAEFGLLETLASGRVQMGERLAWADYRSEVSVYAAQERVYLDRQHFRPGPHSRAPGVLGGNDYFASGVWVAGDSAAGRPAAESPTTAPGWASGLSAGGAVWARGVAATGPALDHAARQLREQVRHDLFGAAPLVLRRLEHHHHHH | not soluble
MSEISVTQTLDTLGLRCPEPVMLVRKNIRHLNDGEILLIIADDPATTRDIPSFCQFMDHTLLQCEVEKPPFKYWVKRGK | not soluble
MMTKTTTVPKNVYELAQERLRIVFNEFDNVYLSFSGGKDSGVLLSLCIDYIRRNNLKIKLGVFHMDYEIQYKMTIDYIARMLEDNKDILEVYRVCVPFRVATCTSMYQSFWRPWEDSKKDLWVRPLPENAMTKEDFPFYNTQMWDYEFQMRFASWLHEKKDAVRTCCLIGIRTQESFNRWRCIYLNRKYQMYHRYRWTSKVGNDIFNAYPIYDWKTTDVWTANGKFKWDYNKLYDYYYW | not soluble
MGSDKIHHHHHHMLKTKTALTLSDKNYYSTEADWHYMSVSQYKNFNECEAATIARLKKIWLPCSDPKALLVGNYVHSYFESSKIHDLFKKENKDKMFSSRKPYGLLKDFQIAEQMIQRLKEEPAFMNLYKGEKEVIVTGQIENVNWKGKIDCLNLEDGYFVDIKTTKDIHERKWNDSYAERCTFIENYGYVLQMAVYKELLSQKYNREFVPIIAAVSKQTPSEVKLITLDEDKMHFEMIQLKENIEHIIKVKNGEEKPTLCGRCEYCRGQQRITHFTNMNDL | not soluble
MSLLTSNLGYPRIGENREWKKALESFWANDTTEEQLLATMKELRLNHLRVQQEQEVDLIPVGDFTLYDHVLDMAVMFGIIPKRFLQQGDTPTLSTYFAMARGSKNAQACEMTKWYNTNYHYIVPELHDAAPRLTKNAPLEAYLEAKNELGIDGKPVILGPYSFVKLAKGYEEDKLQETIQSLLPLYIQVIQELVDAGARSIQVDEPSLVTSISAREMALVTRIYEQINEAIADAPLFLQTYFDAVTFYEEVVSLPVKGIGLDFVHGGAKNLEALRTFGFPEDKVLAAGIIDGRNIWISNLRERHELVHQLEQHVAKDRLVLQPSCSLLHVPVTTKREEKLDPTLLGVLAFANEKLTELHTLKQLAAGNEAEVKEALEANDDALAALEKSGWRSGAATSHNLENKKRPQSFNERRPLQEEKWQLPLLPTTTIGSFPQTKDVRRTRSLWRKGELSTVEYERTMKSYIEKWINIQEELGLDVLVHGEFERNDMVEFFGEKLDGFAFTANGWVQSYGSRCVKPPIIYGNVSFTEPMTVAETVYAQSLTDKPVKGMLTGPVTILNWSFVRDDLPLTVIAHQIAEALTHEVTALEEAGIEMIQIDEPAIREGLPLKAEDQQEYLDWAVSAFRASCAHVKATTQIHTHMCYSEFHEMIEAIDDLDADVISIETSRSHGEMISAFEKTTYEKGIGLGVYDIHSPRVPSEEEMLNVIRRALTVLPASLFWVNPDCGLKTRAEKETVAALKNMVAAARAAREELKTKAEGHHHHHH | soluble
VTKIVSHRGANRFAPENTFAAADLALQQGADYIELDVRESADGVLYVIHDETLDRTTNGTGPVGHMLSSEIDTLDAGGWFDDRFKGAIVPRLDAYLEHLRGRAGVYIELKYCDPAKVAALVRHLGMVRDTFYFSFSEEMRQGLQSIAPEFRRMMTLDIAKSPSLVGAVHHASIIEITPAQMRRPGIIEASRKAGLEIMVYYGGDDMAVHREIATSDVDYINLDRPDLFAAVRSGMAELLLASNSSSTC | soluble
MASKIEPGSPQPIYLDVQATAPMDPRVVDAMLPYMINDFGNPHSRTHSYGWKAEEGVEQAREHVANLIKADPRDIIFTSGATESNNLAIKGVAKFRKQSGKNHIITLQTEHKCVLDSCRYLENEGFKVTYLPVDKGGMVDMEQLTQSITAETCLVSIMFVNNEIGVMQPIKQIGELCRSKGVYFHTDAAQATGKVPIDVNEMKIDLMSISAHKIYGPKGAGALYVRRRPRVRIEAQMSGGGQERGLRSGTVAAPLCIGLGEAAKIADKEMAMDKAHVERLSQMLINGISDKLPHIIRNGDARHAYPGCVNLSFAYVEGESLLMALKSIALSSGSACTSASLEPSYVLRAIGSEEDLAHSSIRFGLGRFTTDEEVKHTIDLCIRETNRLRDLSPLWEMVQEGIDLKSIQWTQH | not soluble
MRRGRGKGKKQNASAREDRGSGDEEKIPAYRRRGRPQKPMKDDFEEEEEEDDEEMVEKMEVEDEDEEIDDGSVTSKDLKERKRKMSNGSNTDLTEEENGLGSKPNTDDSTRSTSIGFRQNGSRRKSKPRRAAEAVVECNGV | soluble
SLKVNNLIAGALNLNSKDYKKSGKKVSFDKNNLFSSIFQAESVKEDKHFILLENGEFNLDLIKSMLDGINETGERLLSEPSRQNVIFYKKVISEFISIIISSSVCLKEQKGGNLGDPKRPKYRIIKIINDKLDKLAYSVLQNQMTQIKLLDSIEEIQGLLVNLLM | soluble
